The target of assay [1] is T1, MUC1 100mer vaccine peptide (Homo sapiens, UniProt P15941).
T1 construct: 5 copies of the unglycosylated 20mer tandem repeat of the MUC1 VNTR region, human; 100 aa, 5 tandem repeats of 20 aa; unglycosylated; also called 100mer MUC1 peptide; MUC1 VNTR 100mer
Kind of assay: SPR; Biacore T200; Fab captured at low density (RU < 50) on a CM5 chip coated with anti-human Fab capture kit; serially diluted 100mer peptide as analyte; 'Steady State' in Table 1 in place of rate constants. The following applies: both partners purified. Background: In SPR one partner is held on a chip, and binding of the other changes the refractive index at the surface.

The target of assay [2] is T1, MUC1 100mer vaccine peptide.
Target sequence in this assay (P15941 136-235): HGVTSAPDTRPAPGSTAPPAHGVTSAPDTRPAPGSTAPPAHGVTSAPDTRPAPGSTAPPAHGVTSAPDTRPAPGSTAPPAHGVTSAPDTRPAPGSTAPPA
Assay [3] deals with T2, MUC1 VNTR 25mer peptide (Homo sapiens).
T2 construct: MUC1 VNTR, human; one repeat plus 5 amino acids from the next repeat; also called 25mer MUC1 peptide
As to the kind of experiment: SPR; Biacore T200; whole IgG captured on a CM5 chip coated with anti-human IgG capture antibody; serially diluted 25mer peptide as analyte; 1:1 model. To be noted: both partners purified.

The target of assay [4] is T1, MUC1 100mer vaccine peptide. As to the kind of experiment: SPR; Biacore T200; Fab captured at low density (RU < 50) on a CM5 chip coated with anti-human Fab capture kit; serially diluted 100mer peptide as analyte; kinetic analysis, 1:1 model. To be noted: both partners purified.

The term Kd denotes a measure of binding affinity in units of concentration. By koff is commonly meant a measure of how fast the partners let go of each other. Low values mean slow dissociation, high ones fast dissociation. What is called kon is the second-order rate constant of association. High values mean faster complex formation, low ones slower complex formation.

T2 sequence (peptide, as listed by the source): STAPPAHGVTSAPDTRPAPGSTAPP

B1: H4K10 Fab (Fab, V domains shown)
VH: QLQLQESGPGLVKPSETLSLTCTVSGGSISSSRYYWGWIRQPPGKGLEWIGSIYYSGSTYYNPSLKSRVTISVDTSNNQFSLKLTSVTAADTAVYYCARLPESGGYSGWFDPWGQGTLVTVSS
VL: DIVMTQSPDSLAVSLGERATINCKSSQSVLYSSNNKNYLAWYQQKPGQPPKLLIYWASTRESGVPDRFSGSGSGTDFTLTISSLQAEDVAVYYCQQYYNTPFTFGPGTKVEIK
In the case of B1, the affinity in assay [1], expressed as Kd, was 5310 nM. This lies in the single-digit micromolar range.

B2: H4K11 Fab (Fab, V domains shown)
VH: QLQLQESGPGLVKPSETLSLTCTVSGGSISSSRYYWGWIRQPPGKGLEWIGSIYYSGSTYYNPSLKSRVTISVDTSNNQFSLKLTSVTAADTAVYYCARLPESGGYSGWFDPWGQGTLVTVSS
VL: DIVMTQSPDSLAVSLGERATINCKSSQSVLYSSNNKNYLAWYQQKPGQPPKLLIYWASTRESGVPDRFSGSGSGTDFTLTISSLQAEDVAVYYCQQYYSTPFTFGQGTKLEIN
With B2, in assay [1], the Kd came to 15700 nM.

B3: H16K6 (antibody, V domains shown)
VH: QVQLVESGGGLVKPGGSLRLSCAASGFTFSDYYMSWIRQAPGKGLEWVSYISSSGTTKYYADSVKGRFTISRDNAKNSLYLQMNSLRAEDTAVYYCVRENLGYCSGGSCFYYYYMDVWGKGTTVTVSS
VL: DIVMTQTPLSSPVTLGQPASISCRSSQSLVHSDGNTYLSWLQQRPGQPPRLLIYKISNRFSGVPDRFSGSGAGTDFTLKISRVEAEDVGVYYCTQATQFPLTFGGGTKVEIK
Turning to B3, the binding result in assay [2] is recorded as “binds”.

B4: H14K6 whole IgG (antibody, V domains shown)
VH: QVQLVESGGGLVKPGGSLRLSCAASGFTFSDYYMSWIRQAPGKGLEWVSYISSSGSTIYYADSVKGRFTISRDNAKNSLYLQMNSLRAEDTAVYYCARERIGYCSGGSCYYYYYMDVWGKGTTVTVSS
VL: not shown
On to B4, for which, in assay [3], binding was characterised by a dissociation constant (Kd) of 27.2 nM, the koff was 0.00123 s⁻¹ and the kon came out at 45300 M⁻¹ s⁻¹.

B5: H19K15 Fab (Fab, V domains shown)
VH: QVQLVESGGGLVKPGGSLRLSCAASGFIFSDYYMSWIRQAPGKGLEWVSYISSSGTTKYYADSVKGRFTISRDNAKNSLYLQMNSLRAEDTAVYYCVREDIGYCSGGSCFYYYYMDVWGKGTTVTVSS
VL: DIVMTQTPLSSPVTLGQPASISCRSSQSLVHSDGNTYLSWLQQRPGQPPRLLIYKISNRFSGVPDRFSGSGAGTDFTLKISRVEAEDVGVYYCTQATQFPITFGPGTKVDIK
As for B5, in assay [4], the dissociation constant Kd amounted to 0.555 nM, the koff is 0.000453 s⁻¹ and the kon turned out to be 817000 M⁻¹ s⁻¹.

B6: H19K15 whole IgG (antibody, V domains shown)
VH: QVQLVESGGGLVKPGGSLRLSCAASGFIFSDYYMSWIRQAPGKGLEWVSYISSSGTTKYYADSVKGRFTISRDNAKNSLYLQMNSLRAEDTAVYYCVREDIGYCSGGSCFYYYYMDVWGKGTTVTVSS
VL: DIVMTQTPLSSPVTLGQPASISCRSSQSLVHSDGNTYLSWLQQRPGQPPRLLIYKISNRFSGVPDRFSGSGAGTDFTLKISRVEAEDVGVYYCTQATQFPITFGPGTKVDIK
Turning to B6, in assay [3], the kon was 8600 M⁻¹ s⁻¹.

B7: H14K6 Fab (Fab, V domains shown)
VH: QVQLVESGGGLVKPGGSLRLSCAASGFTFSDYYMSWIRQAPGKGLEWVSYISSSGSTIYYADSVKGRFTISRDNAKNSLYLQMNSLRAEDTAVYYCARERIGYCSGGSCYYYYYMDVWGKGTTVTVSS
VL: not shown
Regarding B7, in assay [4], the Kd turned out to be 0.13 nM, the koff was determined as 0.000346 s⁻¹ and the kon was 2.67e+06 M⁻¹ s⁻¹.

Values taken from publication PMC4992835, “Antibodies elicited by the first non-viral prophylactic cancer vaccine show tumor-specificity and immunotherapeutic potential” (Scientific Reports, 2016).
